Reference: patent publication US20250376535A1 (BEIJING STARMAB BIOMED TECHNOLOGY, published 2025)
Where two headings read alike, the source gives them in different places. One block for each binder: values may come before it.

Key:
[1] = target: T1, recombinant human OX40-Fc (human, UniProt P43489 29-214); experiment: ELISA, OX40-Fc coated, VHH at 0.32 nM
T1 construct: also called rh-OX40-Fc; human OX40 hFC (R & D systems)
T1 sequence: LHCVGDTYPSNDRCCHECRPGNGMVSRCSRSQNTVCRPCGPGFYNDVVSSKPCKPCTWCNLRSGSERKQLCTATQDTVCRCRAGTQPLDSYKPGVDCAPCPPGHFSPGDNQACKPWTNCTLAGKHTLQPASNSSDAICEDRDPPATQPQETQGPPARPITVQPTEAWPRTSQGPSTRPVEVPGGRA
Description: (§1) After four times washing with PBST, the plate was incubated with detecting antibody anti-his-HRP (1:4000 dilution) 100 μl per well for one hour with shaking at 60 rpm. The plate was developed with 100 μL of TMB per well in the dark and then stopped by 50 μL of stop solution per well. […] Data was analyzed using GraphPad Prisma 9.1.

[2] = target: T1, recombinant human OX40-Fc; experiment: blocking ELISA, OX40-hFc premixed with VHH on coated OX40L-mFc; full blocker; full blocker
Description: (§2) Blocking Assay. The 96-well plate was coated with 100 μL of 1 μg/mL OX40L-mFc prepared in antigen coating buffer overnight at 4° C., then blocked with 2% BSA for 1 hour at 25° C. […] The plate was washed with PBST four times, then incubated with Mouse anti-human IgG Fc-HRP at 25° C. for 1 hour. After four times of wash with PBST, the plate was developed with 100 μL of TMB per well for 10 to 20 min in the dark and then stopped by adding 50 μL of Stop Solution.

[3] = target: T1, recombinant human OX40-Fc; experiment: ELISA, OX40-Fc coated, VHH at 0.0128 nM
Description: as §1

[4] = target: T1, recombinant human OX40-Fc; experiment: ELISA, OX40-Fc coated, VHH at 1.6 nM
Description: as §1

[5] = target: T1, recombinant human OX40-Fc; experiment: BLI, VHH-His on anti-His tips, OX40 hFc in solution;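 further: kinetics recorded at 30 °C in PBS pH 7.2, with 200 s of association followed by dissociation monitored in PBS lacking the OX40 protein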
Description: Bio-Layer Interferometry (BLI) kinetic binding analysis. […] Affinity measurements were performed with Gator equipped with Anti-Penta-His capture (HIS1K) biosensor tips. The assay was performed at 30° C. in 1×PBS buffer (Gibco®, PBS pH7.2). Samples were agitated at 1000 rpm. Prior to analysis, sensors were humidified for 15 min. Purified anti-OX40 VHH was tested for its binding capacity with HIS1K sensor tips. Tips were loaded using 20 μg/ml of anti-OX40 VHH. Loading proceeded for 300 s resulting in capture levels of between 1.8 and 2 nm. […] Association was initiated and monitored for 200 sec, after which tips were transferred to 1×PBS buffer without Factor protein (Gibco, PBS pH 7.2), in order to monitor dissociation. Sensor data was collected throughout the experiments, processed, and analyzed using the Gator data analysis software.

[6] = target: T1, recombinant human OX40-Fc; experiment: ELISA, OX40-Fc coated, VHH at 8 nM
Description: as §1

[7] = target: T1, recombinant human OX40-Fc; experiment: ELISA, OX40-Fc coated, VHH at 40 nM
Description: as §1

[8] = target: T1, recombinant human OX40-Fc; experiment: ELISA, OX40-Fc coated, VHH at 0.064 nM
Description: as §1

[9] = target: T1, recombinant human OX40-Fc; experiment: ELISA, OX40-Fc coated, VHH at 200 nM
Description: as §1

[10] = target: T1, recombinant human OX40-Fc; experiment: ELISA, OX40-Fc coated, VHH at 1000 nM
Description: as §1

[11] = target: T1, recombinant human OX40-Fc; experiment: blocking ELISA, OX40-hFc premixed with VHH on coated OX40L-mFc; partial blocker; partial blocker
Description: as §2

[12] = target: T2, recombinant human CD40-Fc (human, UniProt P25942 21-193); experiment: ELISA, CD40-Fc coated, VHH at 40 nM
T2 construct: also called rh-CD40-Fc; CD40-hFc
T2 sequence (P25942 21-193): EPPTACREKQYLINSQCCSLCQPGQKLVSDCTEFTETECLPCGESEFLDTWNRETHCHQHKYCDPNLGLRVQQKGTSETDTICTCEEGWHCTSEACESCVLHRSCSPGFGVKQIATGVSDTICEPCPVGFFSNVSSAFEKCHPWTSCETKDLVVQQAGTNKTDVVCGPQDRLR
Description: (§3) After four times washing with PBST, the plate was incubated with detecting antibody anti-his-HRP (1:4000 dilution) 100 μl per well for one hour with shaking at 60 rpm. The plate was developed with 100 μL of TMB per well in the dark and then stopped by 50 μL of stop solution per well.

[13] = target: T2, recombinant human CD40-Fc; experiment: ELISA, CD40-Fc coated, VHH at 0.064 nM
Description: as §3

[14] = target: T2, recombinant human CD40-Fc; experiment: ELISA, CD40-Fc coated, VHH at 0.013 nM
Description: as §3

[15] = target: T2, recombinant human CD40-Fc; experiment: ELISA, CD40-Fc coated, VHH at 1.6 nM
Description: as §3

[16] = target: T2, recombinant human CD40-Fc; experiment: blocking ELISA: CD40L-mFc (1.m18) coated, VHH premixed with CD40-hFc, bound CD40-hFc detected with anti-human IgG Fc-HRP, OD450
Description: The 96-well plate was coated with 100 μL of 1 μg/mL CD40L-mFc prepared in antigen coating buffer overnight at 4° C., then blocked with 2% BSA for 1 hour at 25° C. […] The plate was washed with PBST four times, then incubated with Mouse anti-human IgG Fc-HRP at 25° C. for 1 hour. After four times of wash with PBST, the plate was developed with 100 μL of TMB per well for 10 to 20 min in the dark and then stopped by adding 50 μL of Stop Solution.

[17] = target: T3, Human CD40 antigen (recombinant, BLI) (human, UniProt P25942 21-193); experiment: BLI, VHH-His on anti-His tips, human CD40 in solution;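 further: kinetics measured at 30 °C in PBS pH 7.2, association tracked for 200 s, then dissociation followed in PBS lacking CD40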
T3 construct: also called rh-CD40
T3 sequence (P25942 21-193 limits assumed): as the sequence (P25942 21-193) above
Description: Bio-Layer Interferometry (BLI) kinetic binding analysis. […] Affinity measurements were performed with Gator equipped with Anti-Penta-His capture (HIS1K) biosensor tips. The assay was performed at 30° C. in 1×PBS buffer (Gibco®, PBS pH7.2). Samples were agitated at 1000 rpm. Prior to analysis, sensors were humidified for 15 min. […] Sensor data was collected throughout the experiments, processed, and analyzed using the Gator data analysis software.
Briefly, purified anti-CD40 VHH was tested for its binding capacity with HIS1K sensor tips. Tips were loaded using 20 μg/ml of anti-CD40 VHH. Loading proceeded for 300 sec resulting in capture levels of between 1.8 and 2 nm. […] Association was initiated and monitored for 200 sec, after which tips were transferred to 1×PBS buffer without CD40 protein in order to monitor dissociation.

[18] = target: T2, recombinant human CD40-Fc; experiment: ELISA, CD40-Fc coated, VHH at 1000 nM
Description: as §3

[19] = target: T2, recombinant human CD40-Fc; experiment: ELISA, CD40-Fc coated, VHH at 200 nM
Description: as §3

[20] = target: T2, recombinant human CD40-Fc; experiment: ELISA, CD40-Fc coated, VHH at 8 nM
Description: as §3

[21] = target: T2, recombinant human CD40-Fc; experiment: ELISA, CD40-Fc coated, VHH at 0.0026 nM
Description: as §3

[22] = target: T2, recombinant human CD40-Fc; experiment: ELISA, CD40-Fc coated, VHH at 0.32 nM
Description: as §3

human serum albumin [23] = target: T4, human serum albumin (human, UniProt P02768 25-609); experiment: BLI (Gator), His-tagged VHH on anti-His sensor, HSA 100 nM in solution
T4 construct: also called HSA
Description: (§4) Kinetic binding analysis of MSA VHHs were performed with Gator Prime system equipped with analyze software. […] The experiments were done at 30° C. Prior to analysis, sensors were socked in Q buffer for 600 sec with shaking at 1000 rpm, and then 2 μM of HIS tagged MSA VHHs were loaded to Anti-His sensors with shaking at 400 rpm for 120 sec. Loaded sensors were transferred into Q buffer for 60 sec. Association of HSA or MSA at 100 nM was initiated and monitored for 120-180 sec with shaking at 1000 rpm, and finally dissociation in Q buffer for 120-180 sec with 1000 rpm shaking. Software V2.0 (Gator Bio) was used for data analysis. The on-rate (Kₒₙ) and off-rate (Kd) were determined by fitting of the association and dissociation phases of each sample. The mathematical model used assumes a 1:1 stoichiometry, fitting only one analyte in solution binding to one binding site on the surface. The equilibrium dissociation constant (KD), a measure for affinity, was then calculated as the ratio of Kd and Kₒₙ.

murine serum albumin [24] = target: T5, murine serum albumin (murine, UniProt P07724 25-608); experiment: BLI (Gator), His-tagged VHH on anti-His sensor, murine serum albumin 100 nM in solution
T5 construct: As antigen 'MSA' means murine serum albumin; the VHHs also carry the label MSA; also called MSA
Description: as §4

murine serum albumin [25] = target: T5, murine serum albumin; experiment: as above; remark: listed apart in the source
Description: as §4

murine serum albumin [26] = target: T5, murine serum albumin; experiment: ELISA, murine serum albumin coated, VHH 0.128 nM
Description: The 96-well plate was coated with 100 μL per well of HSA or MSA (murine serum albumin) prepared at 1 μg/ml in coating buffer at 4° C. overnight, then blocked with 200 μL per well of casein for one hour at room temperature. MSA VHHs were made into a series of dilutions and added to HSA or MSA coated plate for one hour incubation. The plate was washed with PBST four times, then incubated with Streptavidin conjugated with HRP at 25° C. for 1 hour. After three times of wash with 250 μL PBST per well, the plate was developed with 100 μL of TMB per well for 10 to 20 min in the dark and then stopped by adding 100 μL of Stop Solution.

human serum albumin [27] = target: T4, human serum albumin; experiment: BLI (Gator), His-tagged VHH on anti-His sensor, HSA 100 nM in solution; remark: listed apart in the source
Description: as §4

4-1BB Fc = target: T6, 4-1BB Fc (human, UniProt Q07011 24-183); experiment: blocking ELISA: 41BBL-mFc (1.m32) coated, VHH premixed with 41BB-hFc, bound 41BB-hFc detected with anti-human IgG Fc-HRP, OD450
T6 construct: also called rh-41BB; 41BB-hFc
T6 sequence (Q07011 24-183): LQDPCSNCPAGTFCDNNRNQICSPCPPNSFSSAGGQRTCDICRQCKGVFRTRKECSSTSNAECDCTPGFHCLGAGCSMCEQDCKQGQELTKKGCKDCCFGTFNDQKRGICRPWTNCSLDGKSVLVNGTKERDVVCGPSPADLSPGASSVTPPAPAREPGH
Description: The 96-well plate was coated with 100 μL of 1 μg/mL 41BBL-mFc prepared in antigen coating buffer overnight at 4° C., then blocked with 2% BSA for 1 hour at 25° C. […] The plate was washed with PBST four times, then incubated with Mouse anti-human IgG Fc-HRP at 25° C. for 1 hour. After four times of wash with PBST, the plate was developed with 100 μL of TMB per well for 10 to 20 min in the dark and then stopped by adding 50 μL of Stop Solution.

Human 41BB antigen (BLI) = target: T7, Human 41BB antigen (BLI) (human, UniProt Q07011 24-183); experiment: BLI, VHH-His on anti-His tips, human 41BB in solution;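 further: association tracked for 200 s, after which dissociation was followed in 1×PBS free of 41BB protein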
T7 construct: also called 41BB protein
T7 sequence (Q07011 24-183 limits assumed): as the sequence (Q07011 24-183) above
Description: Tips were loaded using 20 μg/ml of anti-41BB VHH. Loading proceeded for 300 sec resulting in capture levels of between 1.8 and 2 nm. […] Association was initiated and monitored for 200 sec, after which tips were transferred to 1×PBS buffer without 41BB protein, in order to monitor dissociation.

- OD450 [1]: 0.993
- EC50 [2]: 0.12 nM
- OD450 [3]: 0.119
- OD450 [4]: 1.46
- Kd [5]: < 0.001 nM
- koff [5]: 1e-06 s⁻¹
- kon [5]: 662000 M⁻¹ s⁻¹
- OD450 [6]: 1.48
- OD450 [7]: 1.54
- OD450 [8]: 0.369
- OD450 [9]: 1.61
- OD450 [10]: 1.62
B1: pgXX88-10 (VHH, not shown: small tags and cut ends)
VHH: EVQLVESGGGLVQAGESLRLSCSASGSIRLNAVGWFRQAPVNQRLMVATITHNNSTNYADSVQGRFTIARDDAKNTVTLQMNSLKPEDTAVYMCKVYQLPVPISSHDDYWGQGTQVTVSS

- OD450 [1]: 0.126
- OD450 [3]: 0.062
- OD450 [4]: 0.463
- Kd [5]: 0.185 nM
- koff [5]: 8.73e-05 s⁻¹
- kon [5]: 472000 M⁻¹ s⁻¹
- OD450 [6]: 1.12
- OD450 [7]: 1.49
- OD450 [8]: 0.076
- OD450 [9]: 1.58
- EC50 [11]: 1.98 nM
- OD450 [10]: 1.78
B2: pgXX88-SZ-4 (VHH, not shown: small tags and cut ends)
VHH: QVQLVESGGGLAQPGSSLRLSCTASGTVFSILSATWFRQAPGKAHEARELVAFISSDGVSMHADSVKGRFTISRDNAASTVYLQMDNLQPEDTAVYFCKLSNSMMSLEYWGRGTQVTVSS
notes: also called ppXX88-SZ-4

- OD450 [1]: 0.736
- EC50 [2]: 0.12 nM
- OD450 [3]: 0.068
- OD450 [4]: 1.66
- Kd [5]: 0.48 nM
- koff [5]: 0.000259 s⁻¹
- kon [5]: 539000 M⁻¹ s⁻¹
- OD450 [6]: 1.89
- OD450 [7]: 1.95
- OD450 [8]: 0.166
- OD450 [9]: 1.94
- OD450 [10]: 2.12
B3: pgXX88-SZ-15 (VHH, not shown: small tags and cut ends)
VHH: QVQLVESGGGLVQPGGSLRLSCSPSEGAFKMLTTGWFRQVLGKEREFVSAISWGGGATYYADSVKGRFTVSRDNAKNTVYLQMNSLKPEDTAVYYCAVDTGNGVATNIRSQSRYDYWGQGTQVTVSS

- OD450 [12]: 1.71
- OD450 [13]: 0.084
- OD450 [14]: 0.055
- OD450 [15]: 0.903
- IC50 (read off the curve) [16]: ~20 nM
- Kd [17]: < 0.001 nM
- koff [17]: 1e-05 s⁻¹
- kon [17]: 607000 M⁻¹ s⁻¹
- OD450 [18]: 1.81
- OD450 [19]: 1.84
- OD450 [20]: 1.7
- OD450 [21]: 0.078
- OD450 [22]: 0.251
B4: pgDD40-HZ-24 (VHH, not shown: small tags and cut ends)
VHH: EVQLVESGGGSVQAGGSLRLSCAASLSTFSNYRMGWFRRAPGKERELVARIEPHGVVDYGDSVKGRFTISRDNAKNTVTVYLHMNSLKPEDTAVYYCNALRLISGRYDPLFSSWGQGTQVTVSS
notes: also called pgDD40-HG-24

- Kd (human serum albumin [23]): 7.16 nM
- koff (human serum albumin [23]): 0.000752 s⁻¹
- kon (human serum albumin [23]): 105000 M⁻¹ s⁻¹
- Kd (murine serum albumin [24]): 4.49 nM
- koff (murine serum albumin [24]): 0.000644 s⁻¹
- kon (murine serum albumin [24]): 143000 M⁻¹ s⁻¹
- Kd (murine serum albumin [25]): 8.83 nM
- koff (murine serum albumin [25]): 0.0011 s⁻¹
- kon (murine serum albumin [25]): 125000 M⁻¹ s⁻¹
- ELISA OD450 (murine serum albumin [26]): 0.07
- Kd (human serum albumin [27]): 11.3 nM
- koff (human serum albumin [27]): 0.00101 s⁻¹
- kon (human serum albumin [27]): 89600 M⁻¹ s⁻¹
B5: MSA4 (VHH)
VHH: EVQLVEFGGGLVQAGGSLRLSCAASGRTDSAYRMGWFRQAPGKEREFVSAINWSDGRTVYLDSVKGRFTISRDNAKNMVYLQMNSLKPEDTAVYYCAADPDSRLYYTVPQNYDYWGQGTQVTVSS
notes: Llama single domain antibody with C-terminal His-tag, made in HEK293; not shown: C-terminal His-tag

- IC50 (read off the curve) (4-1BB Fc): ~0.5 nM
- Kd (Human 41BB antigen (BLI)): 2.35 nM
- koff (Human 41BB antigen (BLI)): 0.00121 s⁻¹
- kon (Human 41BB antigen (BLI)): 512000 M⁻¹ s⁻¹
B6: 4-1BB-59 (VHH, not shown: small tags and cut ends)
VHH: EVQLVESGGGLVQPGESLRLSCAASGDTVSGYVMLWWRQAPGKERELVAAISSVGYTYYTDSVKGRFTISRDNAKNTVYLQMNSLKPEDTAVYYCAADPASISTRSAYWGQGTQVTVSS
